Assay results published in patent publication US12428446B2, “Peptide compound or pharmaceutically acceptable salt thereof” (Eyebio Korea, priority 2019, dated 2025).
Primed or numbered codes have the meaning given here. Where no end group is shown, it is not given here. [ ]: non-standard residue; d: D form. Pro(cis-4-F) = O=C(O)[C@@H]1C[C@H](F)CN1; Pro(4,4-Me2) = CC1(C)CN[C@H](C(=O)O)C1; Asu′ = aspartimide (aminosuccinimide); Hyp = O=C(O)[C@@H]1C[C@@H](O)CN1; Aib = CC(C)(N)C(=O)O

Columns and labels:
[1] = Evaluation of dissolution stability (content change on storage in dissolved state); assay type: physicochemical; settings: 1 mg/1 ml dissolved state, 40° C. and RH 75%
[2] = tested on: IL-6 secretion, Raw 264.7 cells; test: Anti-inflammatory efficacy: IL-6 ELISA in LPS-stimulated Raw 264.7 macrophages; assay type: cell-based, mouse; settings: for IL-6 level increased by LPS: 1 h pretreatment, LPS 1 μg/ml 24 h; for anti-inflammatory activity by regulating the secretion of IL-6: summary, concentration not given
Procedure: (§1) An anti-inflammatory efficacy was evaluated for representative examples of the above examples. Specifically, in order to confirm whether Examples 10, 32, 41, 55, 59 and 91, which are representative examples of 5 amino acid residues, Examples 11 and 30, which are representative examples of 6 amino acid residues, Example 86, which is a representative example of 7 amino acid residues, and Examples 103 and 104, which are representative examples of 8 amino acid residues, have an anti-inflammatory effect, a change in the secretion amount of inflammatory cytokines was confirmed by enzyme-linked immunosorbent assay (ELISA) using Raw 264.7 cells, which are macrophage (monocyte) cell lines.
(§2) Specifically, the Examples were diluted in Raw264.7 cells (Korean Cell Line Bank, 40071) at a concentration of 10 nM, 100 nM, 1 μM, and 10 μM, respectively, and pretreated for 1 hour, and then LPS (Sigma, L6529) at a concentration of 1 μg/ml was added to induce an inflammatory response. After 24 hours of induction, the cell culture supernatant was collected and analyzed. Enzyme-linked immunosorbent assay was performed using Mouse IL-6 Quantikine ELISA Kit (R&D systems, M6000B), TNF-alpha Quantikine ELISA Kit (R&D systems, MTA00B), Mouse IL-1 beta/IL-1F2 Quantikine ELISA Kit (R&D systems, MLB00C) in accordance with the manufacturer's manual.

[3] = tested on: IL-1β secretion, Raw 264.7 cells; test: Anti-inflammatory efficacy: IL-1β ELISA in LPS-stimulated Raw 264.7 macrophages; assay type: cell-based, mouse; settings: for IL-1β level increased by LPS: 1 h pretreatment, LPS 1 μg/ml 24 h; for anti-inflammatory effect by regulating the secretion of IL-1β: summary, concentration not given
Procedure: as §1, §2

[4] = tested on: TNFα secretion, Raw 264.7 cells; test: Anti-inflammatory efficacy: TNFα ELISA in LPS-stimulated Raw 264.7 macrophages; assay type: cell-based, mouse; settings: for TNFα level increased by LPS: 1 h pretreatment, LPS 1 μg/ml 24 h; for anti-inflammatory activity by regulating the secretion of TNFα: summary, concentration not given
Procedure: as §1, §2

Row | Substance | Day 1 content (%) [1] [%] | Day 3 content (%) [1] [%] | Day 7 content (%) [1] [%] | Initial content (%) [1] [%] | anti-inflammatory effect by regulating the secretion of IL-1β [3] | also measured
1 | cis-4F-Pro-Gly-Gln-Asp-Gly ([Pro(cis-4-F)]GQDG) [Example 41] | 93.20 | 91.07 | 85.34 | 96.95 | significant anti-inflammatory effect | IL-6 level increased by LPS ([2]; 1 μM peptide): significantly reduced; anti-inflammatory activity by regulating the secretion of IL-6 [2]: significant anti-inflammatory activity; IL-1β level increased by LPS ([3]; 100 nM peptide): significantly reduced
2 | Hyp-Gly-Gln-Asu-Gly-Leu-Ala-Gly ([Hyp]GQ[Asu′]GLAG) [Example 103] | 97.20 | 96.90 | 94.88 | 97.09 | significant anti-inflammatory effect | IL-1β level increased by LPS ([3]; 1 μM peptide): significantly reduced
3 | Gln-Asu-Gly-Leu-Ala-Gly-Pro-Lys (Q[Asu′]GLAGPK) [Example 104] | 96.52 | 93.78 | 93.01 | 94.22 |  | TNFα level increased by LPS ([4]; 10 nM peptide): significantly reduced; anti-inflammatory activity by regulating the secretion of TNFα [4]: significant anti-inflammatory activity
4 | Hyp-Gly-Gln-D Asp-Gly ([Hyp]GQ[dD]G) [Example 59] | 98.78 | 98.76 | 98.75 | 98.78 | significant anti-inflammatory effect | anti-inflammatory activity by regulating the secretion of TNFα [4]: significant anti-inflammatory activity; IL-1β level increased by LPS ([3]; 100 nM peptide): significantly reduced
5 | Hyp-Gly-Gln-Glu-Leu-Leu-Ala ([Hyp]GQELLA) [Example 86] | 97.40 | 97.77 | 97.55 | 98.16 | significant anti-inflammatory effect | IL-1β level increased by LPS ([3]; 10 nM peptide): significantly reduced; IL-1β level increased by LPS ([3]; 1 μM peptide): significantly reduced; IL-1β level increased by LPS ([3]; 10 μM peptide): significantly reduced
6 | Hyp-Gly-Gln-Asp-Gly ([Hyp]GQDG) [Example 10] |  | 86.65 | 78.68 | 98.76 | significant anti-inflammatory effect | TNFα level increased by LPS ([4]; 10 nM peptide): significantly reduced; TNFα level increased by LPS ([4]; 1 μM peptide): significantly reduced; anti-inflammatory activity by regulating the secretion of TNFα [4]: significant anti-inflammatory activity; IL-1β level increased by LPS ([3]; 100 nM peptide): significantly reduced; IL-1β level increased by LPS ([3]; 1 μM peptide): significantly reduced
7 | QDGLAG [Example 30] | 95.61 | 94.27 | 91.57 | 96.44 |  | IL-6 level increased by LPS ([2]; 10 nM peptide): significantly reduced; anti-inflammatory activity by regulating the secretion of IL-6 [2]: significant anti-inflammatory activity
8 | 4,4-dimethyl Pro-Gly-Gln-Asp-Gly ([Pro(4,4-Me2)]GQDG) [Example 55] | 94.34 | 90.29 | 81.00 | 97.82 | significant anti-inflammatory effect | IL-1β level increased by LPS ([3]; 100 nM peptide): significantly reduced
9 | Hyp-Gly-Gln-Asp-Leu ([Hyp]GQDL) [Example 32] | 96.81 | 93.57 | 90.50 | 98.05 | significant anti-inflammatory effect | anti-inflammatory activity by regulating the secretion of IL-6 [2]: significant anti-inflammatory activity; IL-1β level increased by LPS ([3]; 10 nM peptide): significantly reduced; IL-1β level increased by LPS ([3]; 100 nM peptide): significantly reduced; IL-1β level increased by LPS ([3]; 1 μM peptide): significantly reduced
10 | Hyp-Gly-Gln-Asp-Gly-Leu ([Hyp]GQDGL) [Example 11] | 91.37 | 81.21 | 64.19 | 98.96 |  | TNFα level increased by LPS ([4]; 10 μM peptide): significantly reduced; anti-inflammatory activity by regulating the secretion of TNFα [4]: significant anti-inflammatory activity
11 | Hyp-Gly-Gln-Glu-Val ([Hyp]GQEV) [Example 91] | 99.10 | 98.74 | 98.68 | 99.08 | significant anti-inflammatory effect | IL-6 level increased by LPS ([2]; 1 μM peptide): significantly reduced; anti-inflammatory activity by regulating the secretion of IL-6 [2]: significant anti-inflammatory activity; IL-1β level increased by LPS ([3]; 10 nM peptide): reduced; IL-1β level increased by LPS ([3]; 100 nM peptide): reduced; IL-1β level increased by LPS ([3]; 1 μM peptide): reduced; IL-1β level increased by LPS ([3]; 10 μM peptide): reduced
12 | Hyp-Gly-Gln-His-Gly-Leu-Ala ([Hyp]GQHGLA) [Example 80] | 97.18 | 97.13 | 97.07 | 98.44 |  | 
13 | [Hyp]GQ[dD]GLA [Example 64] | 91.62 | 86.18 | 48.37 | 96.19 |  | 
14 | PGQDGL [Example 77] | 86.66 | 80.88 | 69.44 | 92.01 |  | 
15 | Hyp-Gly-Gln-Glu-Aib-Leu-Ala ([Hyp]GQE[Aib]LA) [Example 92] | 97.05 | 96.92 | 96.56 | 96.92 |  | 
16 | Hyp-Ala-Gln-Asp-Gly ([Hyp]AQDG) [Example 73] | 89.07 | 82.64 | 75.49 | 92.11 |  | 
17 | Hyp-Gly-Gln-Ala-Val ([Hyp]GQAV) [Example 119] | 96.33 | 96.18 | 95.89 | 96.39 |  | 
18 | Hyp-Gly-D Gln-Asp-Gly ([Hyp]G[dQ]DG) [Example 58] | 98.01 | 97.85 | 97.56 | 98.03 |  | 
19 | PGQDGLA [Example 78] | 92.18 | 85.14 | 74.01 | 97.41 |  | 
20 | QEGLAG [Example 70] | 90.84 | 88.52 | 85.77 | 92.41 |  | 
21 | Hyp-Gly-Gln-D Asp-Leu ([Hyp]GQ[dD]L) [Example 125] | 97.15 | 95.07 | 88.48 | 98.28 |  | 
22 | [Hyp]GQDVLA [Example 37] | 98.64 | 97.76 | 93.55 | 98.59 |  | 
23 | Hyp-Gly-Gln-Asp-Gly-Val ([Hyp]GQDGV) [Example 71] | 93.07 | 88.76 | 82.04 | 95.21 |  | 
24 | Gln-Asu-Gly-Leu-Ala-Gly (Q[Asu′]GLAG) [Example 118] | 92.71 | 85.67 | 79.33 | 96.15 |  | 
